The text below walks through data of patent publication US20240034800A1 (MEDYTOX, published 2024).

For assay [1], the target named is T1, human HVEM-Fc protein (human, UniProt Q92956 39-202, limits assumed).
T1 construct: not shown: Fc
T1 sequence (looked up): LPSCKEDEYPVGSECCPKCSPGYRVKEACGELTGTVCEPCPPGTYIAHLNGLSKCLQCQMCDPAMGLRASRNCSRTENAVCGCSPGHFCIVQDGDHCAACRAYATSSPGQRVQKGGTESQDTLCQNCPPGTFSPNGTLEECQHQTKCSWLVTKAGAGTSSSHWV
The assay is described as follows: Octet BLI. In general terms: BLI is a label-free optical method that tracks binding on a fibre tip over time.

Assay [2] has as its target T1, human HVEM-Fc protein. The assay is described as follows: Octet BLI (column kdis).
Assay [3] concerns the target T1, human HVEM-Fc protein. As to the kind of experiment: ELISA, coated human HVEM-hFc, anti-human IgG4-HRP.
Description: (§1) The binding ability of the full-size human antibody to HVEM was analyzed using an ELISA testing method. 0.2 μg/ml of each of human HVEM-hFc, cynomolgus monkey HVEM-hFc, and mouse HVEM-mFc proteins was coated on a 96-half-well plate for immunosorbent assay. To inhibit non-specific binding, reaction was carried out in phosphate buffered saline (PBS) containing 3% bovine serum albumin (BSA) for 1 hour, followed by treatment with serially diluted antibodies for 1 hour. To measure the amounts of the bound antibodies, horse radish peroxidase (HRP)-conjugated anti-human IgG4 antibody was used, and for the activity of HRP, a color reaction was induced using a 3,3′,5,5′-tetramethylbenzidine (TMB) substrate solution, and the reaction was terminated with 1N sulfuric acid. […] In the middle of each step, washing was performed three times using PBS (PBST) containing 0.1% Triton X-100. The binding ability of the antibodies was derived using SigmaPlot.
Assay [4] has as its target T2, Mouse HVEM-Fc (mouse, UniProt Q80WM9).
T2 construct: part fused to Fc; also called mouse HVEM-mFc; mHVEM
T2 sequence (fusion chain, looked up): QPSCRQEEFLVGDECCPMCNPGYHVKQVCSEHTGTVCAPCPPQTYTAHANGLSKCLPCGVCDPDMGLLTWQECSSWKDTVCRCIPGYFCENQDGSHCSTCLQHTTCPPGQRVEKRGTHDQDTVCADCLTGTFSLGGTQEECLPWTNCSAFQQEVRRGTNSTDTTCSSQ
As to the kind of experiment: ELISA, coated mouse HVEM-mFc, anti-human IgG4-HRP. In general terms: ELISA stands for enzyme-linked immunosorbent assay.
Description: as §1

For another assay, the target named is T3, Monkey HVEM-Fc (Macaca fascicularis, UniProt A0A2K5W0R1).
T3 construct: part fused to Fc; also called cynomolgus monkey HVEM-hFc
T3 sequence (fusion chain): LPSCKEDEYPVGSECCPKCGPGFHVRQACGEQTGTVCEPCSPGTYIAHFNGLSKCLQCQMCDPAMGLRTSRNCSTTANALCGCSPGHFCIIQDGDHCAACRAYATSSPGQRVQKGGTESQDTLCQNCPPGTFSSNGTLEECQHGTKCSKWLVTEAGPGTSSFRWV
The assay is described as follows: ELISA, coated cynomolgus monkey HVEM-hFc, anti-human IgG4-HRP.

Assay [5] has as its target T1, human HVEM-Fc protein. The assay is described as follows: ELISA, coated human HVEM-hFc 0.2 ug/ml, anti-human IgG4-HRP, SigmaPlot fit.
Description: as §1
In assay [6] the target is T2, Mouse HVEM-Fc. The assay is described as follows: ELISA, coated mouse HVEM-mFc 0.2 ug/ml, anti-human IgG4-HRP, SigmaPlot fit.
Description: as §1
Assay [7] deals with T1, human HVEM-Fc protein. As to the kind of experiment: flow cytometry competition: human HVEM-Fc 1 ug/ml on BTLA-expressing Jurkat cells, antibody 10 or 100 nM; blocked ligand BTLA.
Description: For flow cytometry, the stained cell lines were fixed on ice for 20 minutes using PBS containing 2% formaldehyde and stored in a refrigerator until flow cytometry.

Where “and” joins values, the source holds several entries; their conditions need not be identical. Equal entries are not always repeated.

Description for Monkey HVEM-Fc: as §1

B1: HVEM001 (antibody, human IgG4 S228P, kappa, V domains shown)
VH: EVQLLESGGGLVQPGGSLRLSCAASGFTFSNYAMHWVRQAPGKGLEWVSNINPSGGSTTYAQEFEDRFTISRDNSKNTLYLQMNSLRAEDTAVYYCATRSRQDSWGYFDIWGQGTLVTVSS
VL: EIVLTQSPGTLSLSPGERATLSCRASRSISNYLAWYQQKPGQAPRLLIYGASTRATGIPDRFSGSGSGTDFTLTISRLEPEDFAVYYCQQYGSSPPLTFGQGTKVEIKR
In the assay with human HVEM-Fc protein [1], B1 had a dissociation constant (Kd) of 0.0263 nM. The molecule also yielded a kon with human HVEM-Fc protein [1] of 287000 M⁻¹ s⁻¹. For the same molecule, the off-rate constant (koff) in the assay with human HVEM-Fc protein [2] stood at 7.55e-06 s⁻¹. Moreover, the results for the “binding affinity (ELISA fit; table in pM)” value with human HVEM-Fc protein [3], with Mouse HVEM-Fc [4] and with Monkey HVEM-Fc were 32.8 pM, 228 pM and 341 pM, respectively. Also, the entries for the “binding affinity (ELISA fit)” value with human HVEM-Fc protein [5] and in the assay with Mouse HVEM-Fc [6] were 22 pM and 151 pM, respectively.

B2: HVEM040 (antibody, human IgG4 S228P, kappa, V domains shown)
VH: EVQLLESGGGLVQPGGSLRLSCAASGFTFSNYGMSWVRQAPGKGLEWVSSIYYSGDTYYNPSLESRFTISRDNSKNTLYLQMNSLRAEDTAVYYCASGSNAFDIWGQGTLVTVSS
VL: EIVLTQSPGTLSLSPGERATLSCRASRSVGKYLAWYQQKPGQAPRLLIYGASSRTTGIPDRFSGSGSGTDFTLTISRLEPEDFAVYYCQQYGSSPPVTFGQGTKVEIKR
With B2, the “binding affinity (ELISA fit)” value with human HVEM-Fc protein [5] stood at 20 pM; with Mouse HVEM-Fc [6], 126 pM.

B3: HVEM041 (antibody, human IgG4 S228P, kappa, V domains shown)
VH: EVQLLESGGGLVQPGGSLRLSCAASGFTFSSYAMSWVRQAPGKGLEWVSEISQSGSSNYNPSLKSRFTISRDNSKNTLYLQMNSLRAEDTAVYYCATGRWRFDYWGQGTLVTVSS
VL: EIVLTQSPGTLSLSPGERATLSCRASRSVGKYLAWYQQKPGQAPRLLIYGASTRATGIPDRFSGSGSGTDFTLTISRLEPEDFAVYYCQQYGSSPPVTFGQGTKVEIKR
Turning to B3, the “binding affinity (ELISA fit)” value with human HVEM-Fc protein [5] was 20.1 pM; with Mouse HVEM-Fc [6], 141 pM.

B4: HVEM030 (antibody, human IgG4 S228P, kappa, V domains shown)
VH: EVQLLESGGGLVQPGGSLRLSCAASGFTFSGYYWTWVRQAPGKGLEWVSTISASGDSTYYADSVKGRFTISRDNSKNTLYLQMNSLRAEDTAVYYCAHDRTFGYFDYWGQGTLVTVSS
VL: EIVLTQSPGTLSLSPGERATLSCRASRSVGKYLAWYQQKPGQAPRLLIYAASSLQSGIPDRFSGSGSGTDFTLTISRLEPEDFAVYYCQQYGSSPPITFGQGTKVEIKR
B4: the “binding affinity (ELISA fit)” value with human HVEM-Fc protein [5] is 16.1 pM; with Mouse HVEM-Fc [6], 16.6 pM.

B5: HVEM021 (antibody, human IgG4 S228P, kappa, V domains shown)
VH: EVQLLESGGGLVQPGGSLRLSCAASGFTFSTFAMHWVRQAPGKGLEWVSSIYPSGNTHYKPSLKSRFTISRDNSKNTLYLQMNSLRAEDTAVYYCARRHPGGGWIFDYWGQGTLVTVSS
VL: EIVLTQSPGTLSLSPGERATLSCRASRSVGKYLAWYQQKPGQAPRLLIYGASTRATGIPDRFSGSGSGTDFTLTISRLEPEDFAVYYCQQYGSSPPVTFGQGTKVEIKR
notes: Full-size human IgG4 (S228P) kappa antibody made in ExpiCHO-S; human IL-2 signal peptide is cleaved and left out; also called HVEM021 antibody
Turning to B5, the Kd in the assay with human HVEM-Fc protein [1] was found to be 0.0344 nM. Besides, in the assay with human HVEM-Fc protein [1], the kon is 471000 M⁻¹ s⁻¹. This molecule yielded a dissociation rate constant (koff) in the assay with human HVEM-Fc protein [2] of 1.62e-06 s⁻¹. For the same molecule, the “binding affinity (ELISA fit; table in pM)” value in the assay with human HVEM-Fc protein [3] came out at 32.5 pM; in the assay with Mouse HVEM-Fc [4] it was 55.6 pM; with Monkey HVEM-Fc it was 61.8 pM.

B6: HVEM004 (antibody, human IgG4 S228P, kappa, V domains shown)
VH: EVQLLESGGGLVQPGGSLRLSCAASGFTFSSYAMSWVRQAPGKGLEWVSSISGSGGKTYYADSVRGRFTISRDNSKNTLYLQMNSLRAEDTAVYYCAKGVGYTTSGRFDYWGQGTLVTVSS
VL: EIVLTQSPGTLSLSPGERATLSCRASRSISSYLAWYQQKPGQAPRLLIYGVSTRATGIPDRFSGSGSGTDFTLTISRLEPEDFAVYYCQQYGSWPPFTFGQGTKVEIKR
B6: in the assay with human HVEM-Fc protein [7], the binding result is on record as “binds”.

B7: HVEM011 (antibody, human IgG4 S228P, kappa, V domains shown)
VH: EVQLLESGGGLVQPGGSLRLSCAASEFTFSSYAMHWVRQAPGKGLEWVSSITSASSYIDYADSVKGRFTISRDNSKNTLYLQMNSLRAEDTAVYYCARGTRGLFDHWGQGTLVTVSS
VL: EIVLTQSPGTLSLSPGERATLSCRASRSVGKYLAWYQQKPGQAPRLLIYLGSNRASGIPDRFSGSGSGTDFTLTISRLEPEDFAVYYCQQYGSSPPITFGQGTKVEIKR
notes: Full-size human IgG4 (S228P) kappa antibody made in ExpiCHO-S; human IL-2 signal peptide is cleaved and left out; also called HVEM011 antibody
With B7, the Kd with human HVEM-Fc protein [1] was 0.0225 nM and 0.0146 nM. Also, the kon with human HVEM-Fc protein [1] was 425000 M⁻¹ s⁻¹ and 598000 M⁻¹ s⁻¹. Also, in the assay with human HVEM-Fc protein [2], the koff is 9.53e-06 s⁻¹ and 8.75e-06 s⁻¹. Moreover, the “binding affinity (ELISA fit; table in pM)” value in the assay with human HVEM-Fc protein [3] was determined as 25.9 pM; in the assay with Mouse HVEM-Fc [4], 203 pM; in the assay with Monkey HVEM-Fc, 65.9 pM. Further, the “binding affinity (ELISA fit)” value with human HVEM-Fc protein [5] is 23.4 pM; with Mouse HVEM-Fc [6], 219 pM.

B8: HVEM018 (antibody, human IgG4 S228P, kappa, V domains shown)
VH: EVQLLESGGGLVQPGGSLRLSCAASGFTFSSYSMNWVRQAPGKGLEWVSAISGSGGGTYSADSVKGRFTISRDNSKNTLYLQMNSLRAEDTAVYYCARGKAYGYFDYWGQGTLVTVSS
VL: EIVLTQSPGTLSLSPGERATLSCRASRSVGKYLAWYQQKPGQAPRLLIYAASTLQSGIPDRFSGSGSGTDFTLTISRLEPEDFAVYYCQQYGSSPPVIFGQGTKVEIKR
As for B8, the “binding affinity (ELISA fit)” value in the assay with human HVEM-Fc protein [5] is 25.9 pM; in the assay with Mouse HVEM-Fc [6], 158 pM.

B9: HVEM017 (antibody, human IgG4 S228P, kappa, V domains shown)
VH: EVQLLESGGGLVQPGGSLRLSCAASGFTFSTNYMSWVRQAPGKGLEWVSLISYSGSNKYYADSVKGRFTISHDNSKNTLYLQMNSLRAEDTAVYYCARGRGNTISGTFDLWGQGTLVTVSS
VL: EIVLTQSPGTLSLSPGERATLSCRASRSVGKYLAWYQQKPGQAPRLLIYSASTLSSGIPDRFSGSGSGTDFTLTISRLEPEDFAVYYCQQYGSSPPITFGQGTKVEIKR
notes: also called HVEM0017
For B9, the “binding affinity (ELISA fit)” value stood at 21.5 pM in the assay with human HVEM-Fc protein [5] and 112 pM with Mouse HVEM-Fc [6].

B10: HVEM039 (antibody, human IgG4 S228P, kappa, V domains shown)
VH: EVQLLESGGGLVQPGGSLRLSCAASGFTFSSYGMNWVRQAPGKGLEWVSIINPSGDTTTYAQKFQGRFTISRDNSKNTLYLQMNSLRAEDTAVYYCARGRGAFDYWGQGTLVTVSS
VL: EIVLTQSPGTLSLSPGERATLSCRASRSVGKYLAWYQQKPGQAPRLLIYGATSRATGIPDRFSGSGSGTDFTLTISRLEPEDFAVYYCQQYGSSPPVTFGQGTKVEIKR
For the molecule B10, the figures for the “binding affinity (ELISA fit)” value with human HVEM-Fc protein [5] and with Mouse HVEM-Fc [6] were 19.5 pM and 334 pM, respectively.

B11: HVEM032 (antibody, human IgG4 S228P, kappa, V domains shown)
VH: EVQLLESGGGLVQPGGSLRLSCAASGFTFSNYAIHWVRQAPGKGLEWVSTISSPGSTINYADSVKGRFTISRDNSKNTLYLQMNSLRAEDTAVYYCASGYLYPAMDVWGQGTLVTVSS
VL: EIVLTQSPGTLSLSPGERATLSCRASRSVGKYLSWYQQKPGQAPRLLIYGASKLQSGIPDRFSGSGSGTDFTLTISRLEPEDFAVYYCQQYGSWPPFTFGQGTKVEIKR
For B11, the “binding affinity (ELISA fit)” value came out at 16.9 pM with human HVEM-Fc protein [5] and 114 pM in the assay with Mouse HVEM-Fc [6].

One may read the Kd as the free concentration of one partner at which half of the binding sites on the other are occupied at equilibrium, for simple one-to-one binding. Usually kon stands for the second-order rate constant of association. Broadly, the koff is a measure of how fast the partners let go of each other.
